Laboratory results published in US11944665B2, “Methods and compositions for modulating lymphatic vessels in the central nervous system” (University of Virginia Patent Foundation, priority 2016, dated 2024).
“Also recorded” adds a separate entry of the source.

Columns and labels:
[1] = test system: meningeal lymphatic vessels; assay: i.c.v. (cisterna magna) injection of rhVEGF-c, meningeal lymphatic vessel diameter (FIG. 2D-E); type: in vivo, mice; settings: single injection of recombinant protein into the CSF (i.c.v.)
Excerpt: FIGS. 2A-H are a series of microscope images and graphs showing Molecular and structural characterization of meningeal lymphatic vessels. FIG. 2A is a series of representative images of Prox1 expression in the nuclei of Lyve-1^+ vessels in the dural sinuses of Prox1^tdT mice (scale bars, 10p m)(in order of left-to-right, the four panels show Lyve-1, Prox1-tdTOMATO, DAPI, and overlay). FIG. 2B is a series of representative images of podoplanin and Lyve-1 labelling on dural sinuses (scale bar, 40 μm) (in order of left-to-right, the three panels show Lyve-1. Podoplanin, and overlay). FIG. 2C is a series of representative images of VEGFR3 and Lyve-1 staining on dural sinuses (scale bar, 20 μm)(in order of left-to-right, the three panels show VEGFR3. Lyve-1, and overlay). For FIGS. 2D and 2E Adult mice were injected i.c.v. (cisterna magna) with 4 μg of rhVEGF-c (Cys156Ser) or with PBS. Meninges were harvested 7 and 14 days after the injection. […] FIG. 2E is a graph showing quantification of the meningeal lymphatic vessel diameter (mean±s.e.m.; n=4 mice each group, *P<0.05, two-way ANOVA with Bonferroni post hoc test). FIGS. 2F and 2G are a series of representative images of smooth muscle cells (alpha-smooth muscle actin, α-SMA) and Lyve-1 labelling on dural sinuses (scale bars, 50 μm (g) or 20 μm(g)). […]

[2] = test system: meningeal lymphatic vessels; assay: Transcranial gel+VEGF-C156S in old mice (Example 4); type: in vivo, C57BL/6 mice; settings: one month transcranial treatment, 2 h after OVA-A647 ICM
Procedure: […] of a gel matrix alone (vehicle) or containing 200 ng of recombinant human VEGF-C156S was applied every two weeks on top of a thinned skull of old C57BL/6 mice. One month after the initial treatment, OVA-A647 was injected ICM and mice were transcardially perfused with saline 2 h post injection. […] OVA-A647 alone is shown in the inset in the upper right corner of each of FIGS. 27A and 27B, and LYVE-1 alone is shown in the inset in the lower right corner of each of FIGS. 27A and 27B.

meningeal lymphatic = assay: Lymphatic drainage of fluorescent microbeads into deep cervical lymph nodes (FIG. 15); type: in vivo, mice; settings: VEGF-c injected into CSF, 5 days after injection, vs PBS
Procedure: FIGS. 15A-E are a series of diagrams, microscope images, and graphs showing modulation of the meningeal lymphatic affects drainage into the cervical lymph nodes. […] Fluorescent microbeads (0.5 μm in diameter-5 μl) were injected in the lateral ventricle of mice at a rate of 0.5 μl/min. 30 min later, the deep cervical lymph nodes were harvested, sliced and immunostained for the presence of fluorescent beads. FIG. 15B is a pair of representative sections of deep cervical lymph nodes from sham operated (left) and ligated (right) mice immunostained for lymphatic vasculature (Lyve-1), fluorescent microbeads and Lyve-1. Note the accumulation of microbeads in the subcapsular space of the lymph nodes in the sham operated mice (left). […] N=3-4 mice per group, Student-t-test. d. Quantification of the coverage of dCLN section by fluorescent beads in PBS and Visudyne injected mice (24 h after ablation). N=3-5 mice per group, *p<0.05, Student-t-test. e. Quantification of the coverage of dCLN section by fluorescent beads in PBS and VEGF-c injected mice (5 days after VEGF-c injection). N=4 mice per group.

B1: VEGF-c: VEGFR3 agonist polypeptide, lymphangiogenic growth factor, SEQ ID NO: 1; recombinant protein injected into CSF (FIG. 2e used rhVEGF-c Cys156Ser) (protein, listed as Homo sapiens)
chain: MHLLGFFSVACSLLAAALLPGPREAPAAAAAFESGLDLSDAEPDAGEATAYASKDLEEQLRSVSSVDELMTVLYPEYWKMYKCQLRKGGWQHNREQANLNSRTEETIKFAAAHYNTEILKSIDNEWRKTQCMPREVCIDVGKEFGVATNTFFKPPCVSVYRCGGCCNSEGLQCMNTSTSYLSKTLFEITVPLSQGPKPVTISFANHTSCRCMSKLDVYRQVHSIIRRSLPATLPQCQAANKTCPTNYMWNNHICRCLAQEDFMFSSDAGDDSTDGFHDICGPNKELDEETCQCVCRAGLRPASCGPHKELDRNSCQCVCKNKLFPSQCGANREFDENTCQCVCKRTCPRNQPLNPGKCACECTESPQKCLLKGKKFHHQTCSCYRRPCTNRQKACEPGFSYSEEVCRCVPSYWKRPQMS
diameter of meningeal lymphatic vessels [1]: increase in diameter; also recorded: increase the diameters of meningeal lymphatic vessels | diameter of meningeal lymphatic vessels ([1]; listed as recombinant VEGF-c): sufficient to increase diameter | OVA-A647 influx from the CSF into the parenchyma [2]: improved CSF influx into brain | lymphatic drainage (efficacy) after VEGF-c (meningeal lymphatic): improves the drainage | lymphatic drainage (efficacy) after VEGF-c (meningeal lymphatic; listed as recombinant VEGF-c): increase drainage efficacy

B2: VEGF-C156S: recombinant human VEGF-C156S, applied in a gel matrix on a thinned skull (protein, UniProt P49767 112-227, looked up, variant C156S)
Vascular endothelial growth …: AHYNTEILKSIDNEWRKTQCMPREVCIDVGKEFGVATNTFFKPPSVSVYRCGGCCNSEGLQCMNTSTSYLSKTLFEITVPLSQGPKPVTISFANHTSCRCMSKLDVYRQVHSIIRR
drainage of OVA-A647 into the dcLNs [2]: increased
